B1: LINE1-full (parent)
chain: UACGUAGGUGGUUUUCCCCUGAUAGUGCUAAGGGGGCCUGGAAGUUUGGACUGGGCAGAGCUCAACACAGCGUGGCAAAGUGGCUGUGGCUAGACUGCCUCUCUGGAUUCCUCGUCACUCAGCAGGGCAUCUCUGAGAGAAAUGCC

Variants of: B1
Experiment: self-cleavage, relative activity (ratio to wild type); higher = more cleavage; in vitro, sequencing; the parent is a self-cleaving ribozyme

Variant	self-cleavage
U45A A50G	0.95
A43U A121U	0.79
A43G G144A	1.39
A43G U96A	0.07
A43G C113U	1.12
U45C U62C	0.07
A43G G48U	1.28
G44A A117G	1.21
U45C G126U	1.34
U45G G49A	1.25
A43U U91C	0.68
A43U G135U	1.43
U45C C71U	0.98
U45C C71A	0.15
A43G C76U	1.66
U45C U108C	2.11
U45C U108A	1.15
G44A A59G	0.03
A43U C103U	1.09
G44A A67G	0.37
A43G C116U	1.22
U45A A57C	0.14
A43G C99U	1.1
A43U A57G	0.89

Variant	self-cleavage
A43G C118U	1.19
G44A U91C	0.65
U45A U100C	1.05
U45C G127A	0.55
A43G U87C	0.32
A43G U46C	0.53
A43U U104A	0.98
U45C U109A	1.5
A43U A67G	0.56
U45G A57U	0.18
U45C A117G	0
U45C G82A	1.86
U45C A136U	1.49
U45C A136G	1.5
U45C G97A	0.07
U45C A141U	1.79
U45A U104C	1.77
U45C A64U	0.29
A43C U81A	1.77
U45A A65G	0.07
A43G A59U	0.82
A43G A69C	0.13
U45A A136U	1.9
A43G A124C	1.96

Variant	self-cleavage
A43G A124G	1.05
A43G A124U	1.38
U45A C63A	0.05
U45C G72A	1.25
U45C A140U	1.05
U45A G72A	0.95
U45C G80A	2.16
U45A A141U	1.01
A43U G49A	1.34
U45A U130C	1.86
A43U U132A	1.15
U45A A79G	1.39
A43C U100A	1.41
U45C G53A	1.64
U45C C90U	0.08
U45A A92C	0.14
U45C U143C	1.7
U45C U143A	1.39
U45C C66U	0.04
A43C C113A	1.1
A43U A107U	1.81
U45G A67G	0.45
U45A C95U	0.18
A43U U134C	1.26

Variant	self-cleavage
A43C G97A	0.09
A43U U73A	0.93
A43U U73C	1.79
U46A A79U	2.16
U46A A79G	1.06
U45C U102C	1.55
G44A U100A	0.85
A43G G122A	0.19
A43G A64U	0.4
A43G A64G	0.32
U45C C99U	1.07
U45G A121G	0.46
U45G A121U	1.82
U45G A121C	2.14
U45A U46G	1.29
U45A U115G	1.17
U45A U115C	1.51
U45A C51G	1.44
G44A A129U	1.43
U45A G74U	1.59
G44A U46C	1.06
U45A U109C	1.4
U45C C56U	0.12
U45C C56A	0.06

Variant	self-cleavage
A43G A94G	0.36
A43G A67U	0.06
U45A G105A	1.56
A43G U134A	0.89
U45C A79G	1.15
U45C A79U	1.92
A43G A79U	1.8
A43G A79G	0.97
U45A U73C	1.32
U45A U73A	1.91
G44U A78G	1.68
A43U C90A	0.07
U45C U112G	1.31
A43G U100C	1.65
A43U U81C	1.26
G44A U47C	1.51
U45A A140G	1.32
U45A U96C	0.13
U45A U47C	1.45
U45A U47A	1.17
A43G G70A	0.11
A43G G70U	0.15
U45G U96C	0.05
U45G A107G	0

Variant	self-cleavage
A43U C116U	1.12
G44A U134G	1.02
A43U U108C	1.08
A43U U108A	1.46
A43G G106A	1.36
U45A A59G	0.05
U45A A59C	1.01
U45A A59U	0.6
U45A A67U	0.09
U45C A107U	1.34
A43U U96C	0.1
U45A A77U	1.56
A43G G126A	1.16
U45G G88A	0.06
U45A U102A	1.36
U45A U102G	0
U45A U102C	1.45
A43G G105U	1.65
U45C A59C	0.79
U45C A59U	1.04
U45G C120U	1.49
A43G A140U	1.19
A43G A78G	1.2
A43G A78U	1.86

Variant	self-cleavage
U45C A67G	1.08
A43U A77U	1.02
A43G G127C	0.77
A43G G127A	0.98
U45A C71U	0.08
A43U U62C	0.06
A43U U109A	1.38
A43U U109C	1.32
U46A A107U	1.36
U46A A107G	1.43
A43U A64U	0.43
A43G C111U	0.93
A43G G97A	0.04
A43G U143G	1.42
A43G U143C	1.36
U45G G106U	0.64
U45G G106C	0.92
A43G C90A	0.07
U45G G97A	0.07
A43U U130A	1.67
A43U U130C	2.34
U45C C128U	1.32
U45G U47A	1.19
A43U U45C	0.87

Variant	self-cleavage
U45A U81C	1.92
A43G C84U	0.16
U46A A124G	0.8
U46A A124U	1.11
U45C U46G	1.37
U45C U46A	0.74
U45C U46C	1.84
A43G U73A	1.53
A43G U73C	1.3
G44A A94G	0.27
G44A A94U	0
A43U U87A	0.03
U45A A138U	1.31
U45A A138G	1.32
A43G G86U	0.03
A43G G86A	0.06
A43G G75A	1.06
U45G U62C	0.02
A43G G82A	1.31
A43G U112A	1.4
A43G U112C	1.2
U46A A136G	1.48
U45A C99U	0.59
A43G U91C	0.37

Variant	self-cleavage
U45A G139A	1.33
U45A U119A	1.44
U45A U119C	1.47
A43G A136G	1.5
A43G A136C	1.18
A43G A136U	1.5
A43G C120U	1.52
A43U A129U	1.22
U45C C84A	0.09
U45C C84U	0.04
A43G U119C	1.51
G44C A64G	0.24
A43G U81C	1.32
A43G U52C	1.13
A43G U52A	1.43
U45G A129U	0.67
A43U A142G	1.24
U45A U87C	0.24
G44C A117U	1.53
A43G C103U	1.25
A43G C128U	0.79
G44C U112C	1.18
A43G A107G	1.5
A43G A107C	1.17

Variant	self-cleavage
A43G A107U	0.7
A43U A69G	0.59
U45C G74U	1.35
A43G U62C	0.1
U45C U81C	0.94
U46A A121U	1.43
G44U U130A	1.99
A43G A142C	1
U45C A129G	1.4
U45C A129U	1.03
U45A U112A	1.21
U45A A124U	1.39
A43U C131A	1.64
U45C U73A	1.68
U45C U73C	1.92
U45G C113A	0.98
U45C G89A	0.01
U45C G54A	0.43
U45A U85C	0.24
U45C G106A	2
U45C G106U	1.17
A43G U47C	1.31
A43G G80A	1.48
U45C A69G	0.31

Variant	self-cleavage
U45C A69U	0.03
U45G A77U	1.15
G44C U45C	1.02
U45C C51A	0.2
U45C C51U	1.58
A43G U109C	1.92
A43G U109A	1.46
U45G A136G	0.94
G44U U115A	1.17
G44A A140G	1.34
A43G A77G	2.07
U45C A65G	0.04
U45C A65U	0.22
U45C A121G	1.71
U45C A121U	1.13
A43G U45C	1.1
U45C A78U	1.43
U45C U52C	0.95
U45C U115A	1.49
U45G A92G	0.09
U45C U132A	1.96
U45C U132C	1.51
U46A A77G	2.14
U45C U104C	1.42

Variant	self-cleavage
U45C U47A	1.3
U46A A57G	0.54
U46A A57U	0.08
U45C G93U	0.03
A43U A94U	0.24
A43U U46A	1.24
A43G U108C	1.56
U45C U100A	0.58
U45C U100C	1.93
A43G G93A	0.1
U45G U109C	0.66
A43U A140G	1.02
A43U A140C	1.58
A43U A140U	1.49
A43G A92U	0.92
A43U A65G	0.02
A43U G72A	1.38
A43G A138G	1.34
U45G U87A	0.07
U45A A64G	0.57
U46A A140G	0.9
U46A A69G	0.36
U46A A69U	0.05
U45C G58A	0.04

Variant	self-cleavage
A43G A50U	0.64
U45C C131A	1.67
A43G U104C	1.68
A43G U104G	1.78
A43G A117C	1.85
U45G U119G	0.44
U46A A94G	0.16
U46A A129U	0.78
G44A A50U	0.94
A43U C110U	0.83
U46A A67U	0.1
U46A A67G	0.22
A43G C146U	1.69
U45C A50U	1.02
U45C A50G	1
A43U U112C	1.48
U45C C120G	2.05
U45C C76U	1.89
A43U A124G	0.71
G44C U91C	0.14
U45C A94U	0.33
A43G U85G	0.15
A43G U85A	0.1
A43G U85C	0.2

Variant	self-cleavage
A43U U115C	1.21
U45C A77C	1.15
U45C A77U	1.29
U45G C68U	0.12
A43C C99U	0.98
U45A A78G	1.11
U45G A141G	1.32
G44A U96C	0.13
U46A A64C	0.24
U45C C68U	0.16
U45G U73A	1.49
A43U A138U	1.14
A43U A138G	0.83
U45C U85A	0.12
U45C U85G	0.26
U45G U46C	1.31
A43U A141C	2.43
U45C U96A	0.07
A43G A57U	0.21
A43G A57C	0.09
A43G A57G	0.78
A43G G74A	1.17

— the RNAGym collection of RNA variant scans (doi:10.7554/elife.90254)
